For two substances, KM of SUMOylation of RanGAP* by E2 (Ubc9), without scaffolds and KM of SUMOylation of RanGAP by E2 (Ubc9), without scaffolds results are on record in publication PMC8635274.

Test [1] deals with mCherry-FKBP-Ubc9 (UniProt P63279).
The target is the same in test [2]. The source holds these as a separate data set.

As to “FKBP-EGFP-RanGAP* (from UniProt P46060 398-587)”, the KM of SUMOylation of RanGAP* by E2 (Ubc9), without scaffolds in test [1] was 150 µM.

Take “FKBP-RanGAP (from UniProt P46060 398-587)”: the KM of SUMOylation of RanGAP by E2 (Ubc9), without scaffolds in test [2] is 2.5 µM.
